The values below come from paper PMC13000311 (Nature Communications, 2026).

B2: human flotillin-1 with a C-terminal 3× FLAG tag (natural protein, UniProt O75955 1-427, looked up)
chain: MFFTCGPNEAMVVSGFCRSPPVMVAGGRVFVLPCIQQIQRISLNTLTLNVKSEKVYTRHGVPISVTGIAQVKIQGQNKEMLAAACQMFLGKTEAEIAHIALETLEGHQRAIMAHMTVEEIYKDRQKFSEQVFKVASSDLVNMGISVVSYTLKDIHDDQDYLHSLGKARTAQVQKDARIGEAEAKRDAGIREAKAKQEKVSAQYLSEIEMAKAQRDYELKKAAYDIEVNTRRAQADLAYQLQVAKTKQQIEEQRVQVQVVERAQQVAVQEQEIARREKELEARVRKPAEAERYKLERLAEAEKSQLIMQAEAEAASVRMRGEAEAFAIGARARAEAEQMAKKAEAFQLYQEAAQLDMLLEKLPQVAEEISGPLTSANKITLVSSGSGTMGAAKVTGEVLDILTRLPESVERLTGVSISQVNHKPLRTA

Data set [1] has as its target B2. Kind of data set: cryo-EM structure.
The data set “cryo-EM structure” concerns the molecule itself. The data set is described as follows: cryo-EM structure.

B1: human flotillin-2 (as in the purified complex used for cryo-EM) (natural protein, UniProt Q14254 1-428, looked up)
chain: MGNCHTVGPNEALVVSGGCCGSDYKQYVFGGWAWAWWCISDTQRISLEIMTLQPRCEDVETAEGVALTVTGVAQVKIMTEKELLAVACEQFLGKNVQDIKNVVLQTLEGHLRSILGTLTVEQIYQDRDQFAKLVREVAAPDVGRMGIEILSFTIKDVYDKVDYLSSLGKTQTAVVQRDADIGVAEAERDAGIREAECKKEMLDVKFMADTKIADSKRAFELQKSAFSEEVNIKTAEAQLAYELQGAREQQKIRQEEIEIEVVQRKKQIAVEAQEILRTDKELIATVRRPAEAEAHRIQQIAEGEKVKQVLLAQAEAEKIRKIGEAEAAVIEAMGKAEAERMKLKAEAYQKYGDAAKMALVLEALPQIAAKIAAPLTKVDEIVVLSGDNSKVTSEVNRLLAELPASVHALTGVDLSKIPLIKKATGVQV
Broadly, the stoichiometry N is a count of units in the complex or per binding partner. B1: the “stoichiometry N” value in data set [1] was 44 protomers (22 flotillin-1 and 22 flotillin-2).
Take B2: in the data set “cryo-EM structure”, the binding result was “binds”.
